Data reported in patent publication US20260209350A1 (Alector, published 2026).

Columns and labels:
mouse TREM2 on cells = target: T1, mouse TREM2 on cells (mouse, UniProt Q99NH8 19-227); experiment: FACS, mTrem2 cells
T1 construct: whole, on cells; Used for the recombinant protein on BWZ/BW cells (with mouse DAP12) and for the native protein on mouse macrophages and dendritic cells; the cell type stands under assay; also called mTREM2; mTrem2
T1 sequence (looked up): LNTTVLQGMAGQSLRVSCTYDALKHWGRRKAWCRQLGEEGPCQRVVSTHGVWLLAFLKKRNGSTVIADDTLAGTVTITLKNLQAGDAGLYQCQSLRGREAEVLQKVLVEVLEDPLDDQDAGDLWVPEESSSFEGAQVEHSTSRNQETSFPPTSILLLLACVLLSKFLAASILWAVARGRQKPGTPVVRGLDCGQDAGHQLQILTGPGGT

[1] = target: T2, human TREM2 Fc fusion protein (human, UniProt Q9NZC2 19-174); experiment: ForteBio or MSD-SET, avid
T2 construct: also called hTREM2-Fc; not shown: Fc part not specified
T2 sequence: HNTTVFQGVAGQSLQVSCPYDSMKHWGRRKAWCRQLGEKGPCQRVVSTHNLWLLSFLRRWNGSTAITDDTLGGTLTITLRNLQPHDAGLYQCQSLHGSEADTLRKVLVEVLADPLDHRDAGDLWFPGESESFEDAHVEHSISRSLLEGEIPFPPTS

[2] = target: T3, mouse TREM2 Fc fusion protein (mouse, UniProt Q99NH8 19-171); experiment: ForteBio or MSD-SET, avid
T3 construct: also called mTREM2-Fc; not shown: Fc part not specified
T3 sequence (looked up): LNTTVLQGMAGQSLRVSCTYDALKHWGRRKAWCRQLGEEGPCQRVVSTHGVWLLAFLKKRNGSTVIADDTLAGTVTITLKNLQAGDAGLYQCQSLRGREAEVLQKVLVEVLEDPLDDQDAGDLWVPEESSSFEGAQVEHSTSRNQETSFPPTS

[3] = target: T4, human monomeric His tagged TREM2 protein (human, UniProt Q9NZC2 19-174); experiment: ForteBio or MSD-SET, monovalent
T4 construct: also called hTREM2-HIS
T4 sequence: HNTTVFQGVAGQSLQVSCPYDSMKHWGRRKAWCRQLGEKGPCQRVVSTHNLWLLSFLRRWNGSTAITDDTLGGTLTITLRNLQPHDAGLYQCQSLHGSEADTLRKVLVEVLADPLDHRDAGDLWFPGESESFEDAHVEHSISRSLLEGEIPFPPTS

B1: Ab11 (antibody, human IgG1, V domains shown)
VH: EVQLVQSGAEVKKPGESLKISCKGSGYSFTTYWIGWVRQMPGKGLEWMGIIYPGDSDTRYSPSFQGQVTISADKSISTAYLQWSSLKASDTAMYYCARAGHYDGGHLGMDVWGQGTTVTVSS
VL: EIVLTQSPGTLSLSPGERATLSCRASQSVSSDYLAWYQQKPGQAPRLLIYGASSRATGIPDRFSGSGSGTDFTLTISRLEPEDFAVYYCQQDYSYPWTFGGGTKVEIK
notes: human IgG1
Mouse TREM2 on cells
  MFI: 5500 MFI
[1]
  Kd: 0.934 nM
[2]
  Kd: 1.19 nM
[3]
  Kd: 7.2 nM

B2: Ab20 (antibody, human IgG1, V domains shown)
VH: QVQLQESGPGLVKPSETLSLTCTVSGGSISSYYWSWIRQPPGKGLEWIGSIYYSGSTNYNPSLKSRVTISVDTSKNQFSLKLSSVTAADTAVYYCARSGMASFFDYWGQGTLVTVSS
VL: EIVLTQSPGTLSLSPGERATLSCRASQSVSSDYLAWYQQKPGQAPRLLIYGASSRATGIPDRFSGSGSGTDFTLTISRLEPEDFAVYYCQQFSSHPFTFGGGTKVEIK
notes: human IgG1
Mouse TREM2 on cells
  MFI: 11200 MFI
[1]
  Kd: 0.658 nM
[3]
  Kd: 3.62 nM

B3: Ab31 (antibody, human IgG1, V domains shown)
VH: QVQLVESGGGVVQPGRSLRLSCAASGFTFSSYGMHWVRQAPGKGLEWVALIWYDGSNKYYADSVKGRFTISRDNSKNTLYLQMNSLRAEDTAVYYCARRRDGYYDEVFDIWGQGTMVTVSS
VL: DIQLTQSPSSLSASVGDRVTITCQASQDISNFLNWYQQKPGKAPKLLIYDASNLETGVPSRFSGSGSGTDFTFTISSLQPEDIATYYCQQPVDLPFTFGGGTKVEIK
notes: human IgG1
[1]
  Kd: 0.451 nM
[2]
  binding result: no binding
[3]
  Kd: 6.82 nM

B4: Ab3 (antibody, human IgG1, V domains shown)
VH: QVQLVQSGAEVKKPGSSVKVSCKASGGTFSSYAISWVRQAPGQGLEWMGGIIPIFGTANYAQKFQGRVTITADESTSTAYMELSSLRSEDTAVYYCAREQYHVGMDVWGKGTTVTVSS
VL: DIQMTQSPSSLSASVGDRVTITCQASQDISNYLNWYQQKPGKAPKLLIYDASNLATGVPSRFSGSGSGTDFTFTISSLQPEDIATYYCQQPFNFPYTFGGGTKVEIK
notes: human IgG1
[1]
  Kd: 0.49 nM
[2]
  binding result: no binding
[3]
  Kd: 14.2 nM

B5: Ab72 (antibody, human IgG1, V domains shown)
VH: QVQLQESGPGLVKPSETLSLTCTVSGGSISSYYWSWIRQPPGKGLEWIGSIYYSGSTNYNPSLKSRVTISVDTSKNQFSLKLSSVTAADTAVYYCARSGTETLFDYWGQGTLVTVSS
VL: DIQMTQSPSSLSASVGDRVTITCQASQDITNYLNWYQQKPGKAPKLLIYDASNLETGVPSRFSGSRSGTDFTFTISSLQPEDIATYYCQQDVNYPPTFGGGTKVEIK
notes: human IgG1
Mouse TREM2 on cells
  MFI: 3750 MFI
[1]
  Kd: 0.839 nM
[3]
  Kd: 29.4 nM

B6: Ab12 (antibody, human IgG1, V domains shown)
VH: EVQLVQSGAEVKKPGESLKISCKGSGYSFTSYWIGWVRQMPGKGLEWMGIIYPGDSDTRYSPSFQGQVTISADKSISTAYLQWSSLKASDTAMYYCARLGHYSGTVSSYGMDVWGQGTTVTVSS
VL: DIQMTQSPSSLSASVGDRVTITCRASQSISSYLNWYQQKPGKAPKLLIYAASSLQSGVPSRFSGSGSGTDFTLTISSLQPEDFATYYCQQEYAVPYTFGGGTKVEIK
notes: human IgG1
Mouse TREM2 on cells
  MFI: 1550 MFI
[1]
  Kd: 1.19 nM
[2]
  Kd: 7.91 nM
[3]
  Kd: 2.68 nM

B7: Ab54 (antibody, human IgG1, V domains shown)
VH: QVQLVQSGAEVKKPGASVKVSCKASGYTFTSYYMHWVRQAPGQGLEWMGIINPSGGSTSYAQKFQGRVTMTRDTSTSTVYMELSSLRSEDTAVYYCARGPGYTTALDYYYMDVWGKGTTVTVSS
VL: DIQMTQSPSSLSASVGDRVTITCRASQSINSYLNWYQQKPGKAPKLLIYAASSLQSGVPSRFSGSGSGTDFTLTISSLQPEDFATYYCQQSDDDPFTFGGGTKVEIK
notes: human IgG1
[1]
  Kd: 0.5 nM
[3]
  Kd: 3.02 nM

B8: Ab34 (antibody, human IgG1, V domains shown)
VH: QVQLVESGGGVVQPGRSLRLSCAASGFTFSSYGMHWVRQAPGKGLEWVAVISYDGSNKYYADSVKGRFTISRDNSKNTLYLQMNSLRAEDTAVYYCARDRGGEYVDFAFDIWGQGTMVTVSS
VL: DIQMTQSPSSLSASVGDRVTITCRASQSISSYLNWYQQKPGKAPKLLIYAASSLQSGVPSRFSGSGSGTDFTLTISSLQPEDFATYYCQQSDFPPWTFGGGTKVEIK
notes: human IgG1
[1]
  Kd: 0.706 nM
[2]
  binding result: no binding
[3]
  Kd: 27 nM

B9: Ab18 (antibody, human IgG1, V domains shown)
VH: QVQLQESGPGLVKPSETLSLTCTVSGGSISSYYWSWIRQPPGKGLEWIGSIYYSGSTNYNPSLKSRVTISVDTSKNQFSLKLSSVTAADTAVYYCARDGGGEYPSGTPFDIWGQGTMVTVSS
VL: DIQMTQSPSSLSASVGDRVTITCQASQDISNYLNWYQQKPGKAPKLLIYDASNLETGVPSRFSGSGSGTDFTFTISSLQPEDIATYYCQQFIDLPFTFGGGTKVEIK
notes: human IgG1
Mouse TREM2 on cells
  MFI: 5160 MFI
[1]
  Kd: 0.513 nM
[3]
  Kd: 6.77 nM

B10: Ab19 (antibody, human IgG1, V domains shown)
VH: QVQLQESGPGLVKPSETLSLTCTVSGGSISSYYWSWIRQPPGKGLEWIGSIYYSGSTNYNPSLKSRVTISVDTSKNQFSLKLSSVTAADTAVYYCARDGGGEYPSGTPFDIWGQGTMVTVSS
VL: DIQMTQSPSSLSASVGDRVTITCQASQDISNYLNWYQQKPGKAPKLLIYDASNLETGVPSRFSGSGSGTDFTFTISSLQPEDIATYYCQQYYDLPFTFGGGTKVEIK
notes: human IgG1
Mouse TREM2 on cells
  MFI: 2300 MFI
[1]
  Kd: 0.465 nM
[3]
  Kd: 4.49 nM

B11: Ab4 (antibody, human IgG1, V domains shown)
VH: QVQLVQSGAEVKKPGSSVKVSCKASGGTFSSYAISWVRQAPGQGLEWMGGIIPIFGTASYAQKFQGRVTITADESTSTAYMELSSLRSEDTAVYYCARGVDSIMDYWGQGTLVTVSS
VL: EIVMTQSPATLSVSPGERATLSCRASQSVSSNLAWYQQKPGQAPRLLIYSASTRATGIPARFSGSGSGTEFTLTISSLQSEDFAVYYCQQDHDYPFTFGGGTKVEIK
notes: human IgG1
Mouse TREM2 on cells
  MFI: 295 MFI
[1]
  Kd: 0.971 nM
[2]
  binding result: no binding

B12: Ab64 (antibody, human IgG1, V domains shown)
VH: EVQLVQSGAEVKKPGESLKISCKGSGYSFTSYWIGWVRQMPGKGLEWMGIIYPGDSDTRYSPSFQGQVTISADKSISTAYLQWSSLKASDTAMYYCARLGRWSSGSTAFDIWGQGTMVTVSS
VL: EIVMTQSPATLSVSPGERATLSCRASQSVSSNLAWYQQKPGQAPRLLIYGASTRATGIPARFSGSGSGTEFTLTISSLQSEDFAVYYCQQDDDGYTFGGGTKVEIK
notes: human IgG1
Mouse TREM2 on cells
  MFI: 8680 MFI
[1]
  Kd: 0.945 nM
[3]
  Kd: 65.7 nM

B13: Ab10 (antibody, human IgG1, V domains shown)
VH: EVQLVQSGAEVKKPGESLKISCKGSGYSFTSNWIGWVRQMPGKGLEWMGIIYPGDSDTRYSPSFQGQVTISADKSISTAYLQWSSLKASDTAMYYCAREAGYDYGELAFDIWGQGTMVTVSS
VL: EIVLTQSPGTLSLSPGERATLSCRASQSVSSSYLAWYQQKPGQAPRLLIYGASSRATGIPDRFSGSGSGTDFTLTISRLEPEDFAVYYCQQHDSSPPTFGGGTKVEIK
notes: human IgG1
Mouse TREM2 on cells
  MFI: 11500 MFI
[1]
  Kd: 0.544 nM
[3]
  Kd: 4.79 nM

B14: Ab51 (antibody, human IgG1, V domains shown)
VH: QVQLVQSGAEVKKPGASVKVSCKASGYTFTSYYMHWVRQAPGQGLEWMGIINPSGGSTSYAQKFQGRVTMTRDTSTSTVYMELSSLRSEDTAVYYCARGVGGQDYYYMDVWGKGTTVTVSS
VL: DIQMTQSPSSLSASVGDRVTITCRASQSISSYLNWYQQKPGKAPKLLIYAASSLQSGVPSRFSGSGSGTDFTLTISSLQPEDFATYYCQQFDDVFTFGGGTKVEIK
notes: human IgG1
[1]
  Kd: 0.284 nM
[3]
  Kd: 1.64 nM

B15: Ab26 (antibody, human IgG1, V domains shown)
VH: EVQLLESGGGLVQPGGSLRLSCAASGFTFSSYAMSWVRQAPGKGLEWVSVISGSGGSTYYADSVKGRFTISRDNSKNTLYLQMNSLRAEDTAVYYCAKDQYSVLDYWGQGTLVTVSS
VL: EIVLTQSPATLSLSPGERATLSCRASQSVSSYLAWYQQKPGQAPRLLIYDASNRATGIPARFSGSGSGTDFTLTISSLEPEDFAVYYCQQEFDLPFTFGGGTKVEIK
notes: human IgG1
[1]
  Kd: 0.481 nM
[3]
  Kd: 3.6 nM

B16: Ab6 (antibody, human IgG1, V domains shown)
VH: QVQLVQSGAEVKKPGASVKVSCKASGYTFTSYYMHWVRQAPGQGLEWMGIINPGGGSTSYAQKFQGRVTMTRDTSTSTVYMELSSLRSEDTAVYYCARGSPTYGYLYDPWGQGTLVTVSS
VL: EIVLTQSPATLSLSPGERATLSCRASQSVSSYLAWYQQKPGQAPRLLIYDASKRATGIPARFSGSGSGTDFTLTISSLEPEDFAVYYCQQRVNLPPTFGGGTKVEIK
notes: human IgG1
Mouse TREM2 on cells
  MFI: 228 MFI
[1]
  Kd: 4.44 nM
[2]
  Kd: 8.51 nM

B17: Ab62 (antibody, human IgG1, V domains shown)
VH: EVQLVQSGAEVKKPGESLKISCKGSGYSFTSYWIGWVRQMPGKGLEWMGIIYPGDSDTRYSPSFQGQVTISADKSISTAYLQWSSLKASDTAMYYCARAGHYDDWSGLGLDVWGQGTMVTVSS
VL: EIVLTQSPATLSLSPGERATLSCRASQSVSSYLAWYQQKPGQAPRLLIYDASKRATGIPARFSGSGSGTDFTLTISSLEPEDFAVYYCQQSSVHPYTFGGGTKVEIK
notes: human IgG1
Mouse TREM2 on cells
  MFI: 4750 MFI
[1]
  Kd: 0.772 nM
[3]
  Kd: 14.2 nM

B18: Ab87 (antibody, human IgG1, V domains shown)
VH: QVQLQESGPGLVKPSETLSLTCTVSGGSISSYYWSWIRQPPGKGLEWIGSIYYSGSTNYNPSLKSRVTISVDTSKNQFSLKLSSVTAADTAVYYCARHGWDRVGWFDPWGQGTLVTVSS
VL: EIVLTQSPATLSLSPGERATLSCRASQSVSRYLAWYQQKPGQAPRLLIYDASNRATGIPARFSGSGSGTDFTLTISSLEPEDFAVYYCQQYIFWPPTFGGGTKVEIK
notes: human IgG1
Mouse TREM2 on cells
  MFI: 1230 MFI
[1]
  Kd: 9.51 nM
[2]
  Kd: 4.48 nM

B19: Ab33 (antibody, human IgG1, V domains shown)
VH: QVQLVESGGGVVQPGRSLRLSCAASGFTFSSYGMHWVRQAPGKGLEWVAVISYDGSNKYYADSVKGRFTISRDNSKNTLYLQMNSLRAEDTAVYYCARAGGHLFDYWGQGTLVTVSS
VL: EIVLTQSPATLSLSPGERATLSCRASQSVSSYLAWYQQKPGQAPRLLIYDASNRATGIPARFSGSGSGTDFTLTISSLEPEDFAVYYCQQDSSFPPTFGGGTKVEIK
notes: human IgG1
[1]
  Kd: 1.42 nM
[2]
  binding result: no binding
[3]
  Kd: 16 nM
